Assay results published in US9927440B2, “Protein engineering” (priority 2009, dated 2018).
Like-named read-outs stand apart in the source and are kept apart here.

How the values were obtained:
[1] = target: T1, Staphylococcal nuclease (SN) (Staphylococcus aureus, UniProt P00644); format: binding; details: SN/L36C; 35.3 °C; from single ΔΔGU measurement; read-out: apparent KD (binary complex)
T1 construct: made in house; host or cells: cell-free TnT, E. coli BL21 Star (DE3) extract
Experimental: (§1) The rate of labeling of internal cysteine residues was measured by reacting 30-50 μL of ˜0.1 μM protein sample (i.e., ˜3-5 picomoles of protein) with excess IAM-biotin (1 mM unless otherwise stated) at constant temperature (25 mM MOPS, 100 mM KCl and pH 7.6). 5 μL aliquots were removed at fixed time intervals and quenched by addition of 2 μL 2M β-mercaptoethanol (Sigma; M6250). Following addition of 5 μL LDS-buffer (Invitrogen; NP0007) and heating for 2 min at 85° C., (un)labeled protein species were resolved by SDS-PAGE (Novex 4-12% Bis-Tris Gels; Invitrogen; NP0321). […] For the experiment shown in FIG. 8A, ecRBP variant L62C was modified with 1 mM IAM-biotin at 47.1° C., pH 7.6. […] Streptavidin was used to alter the electrophoretic mobility of the labeled protein (Streptavidin bands indicated by a, b, and c). […] Error bars represent the estimated uncertainty of the integrated band intensities (˜2%). For the experiment shown in FIG. 8B, SN variant L36C was labeled with IAM-biotin at 35.3° C., pH 7.6. […] At 29.3° C., 26.3° C. and 23.3° C., kint and klabel were manipulated by increasing the concentration of IAM-biotin from 1 mM to 3.16 mM.
(§2) The modulation of protein stability by binding of metals, ligands, activators, inhibitors, substrates, nucleic acid or other proteins can be used to measure binding affinities within a GUWO. For a protein with a single binding site, the free energy of ligand binding was described by
(§3) [formula] where P was the binding polynomial, [L] the total ligand concentration, and KD the apparent dissociation constant of the ligand. For proteins with multiple ligand-binding sites, P was expanded as described in Equations 21-36 below.
(§4) By thermodynamic linkage, any change in ΔGU caused predominantly by ligand binding (Scheme 1) is ΔGbind=ΔΔ^LGU=Δ^LGU−Δ^apoGU [20] where Δ^LGU and Δ^apoGU were the stability of the protein in the presence of absence of ligand respectively. Equation 20 was used to obtain apparent KD values from either the ligand dependence of ΔΔGU (by curve fitting), or from a single measurement of ΔΔGU.

[2] = target: T2, Staphylococcal nuclease (SN) (Staphylococcus aureus, UniProt P00644, L118C/Q162N); format: binding; details: 1 mM Ca2+; 35.3 °C
T2 construct: made in house; host or cells: cell-free TnT, E. coli BL21 Star (DE3) extract
Experimental: as §1, §2, §3, §4

SN = SN (Staphylococcus aureus, UniProt P00644); details: cited from earlier work
[3] = Intrinsic reaction rate of IAM-biotin with unprotected cysteine (GSH), iodide absorbance at 226 nm; format: physicochemical; details: pH 7.6; for pseudo-first order rate constant (kint): 80 μM IAM-biotin, 800 μM GSH
Experimental: FIGS. 10A-C show the determination of kint in model compounds and unfolded SN.
The iodoacetyl moiety of IAM-biotin (EZ-Link™ Iodoacetyl-PEG2-Biotin; Pierce; 21334) reacts primarily with free thiolate to form a stable thioether bond. Because thiolate was the predominant reactive species, the reaction rate was dependent on the pKa of cysteine (˜8.6) relative to solution pH (which was set to 7.6). The kint values reported here were only valid for pH 7.6. kint was determined for an unprotected cysteine by reacting IAM-biotin with L-glutathione (GSH) (Sigma; G4251) and monitoring the absorbance of the liberated iodide ion (ϵ226=12,600M^−1 cm^−1 at 226 nm) as function of time. Second-order rate constants for the reaction of IAM-biotin with GSH were measured under pseudo first-order conditions at 25° C., 35° C., 45° C. and 55° C. (80 μM IAM-biotin, 800 μM GSH, 25 mM MOPS, 100 mM KCl and pH 7.6) and analyzed in terms of the Arrhenius equation (see FIG. 10).

[4] = target: T3, E. coli ribose-binding protein (ecRBP) (Escherichia coli, UniProt P02925, L86C/T28W); experiment: biochemical; details: for ΔG / ΔΔG / kex: ecRBP.L62C, 48.9 °C; for kex: 1.00E−03 M IAM
T3 construct: made in house; host or cells: cell-free TnT, E. coli BL21 Star (DE3) extract
T3 sequence (P02925 other isoform, or with tags, fused parts or gaps T28W/L86C): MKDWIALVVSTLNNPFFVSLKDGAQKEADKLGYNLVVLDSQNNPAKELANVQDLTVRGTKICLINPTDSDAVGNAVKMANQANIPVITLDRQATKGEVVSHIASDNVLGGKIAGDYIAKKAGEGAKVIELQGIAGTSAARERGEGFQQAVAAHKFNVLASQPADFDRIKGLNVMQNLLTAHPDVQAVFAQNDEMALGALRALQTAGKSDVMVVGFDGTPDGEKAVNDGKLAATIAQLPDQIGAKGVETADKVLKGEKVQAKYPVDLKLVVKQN
Experimental: as §1, §2, §3, §4

[5] = target: T4, E. coli ribose-binding protein (ecRBP) (Escherichia coli, UniProt P02925, A213C/T28W); experiment: biochemical; details: for ΔG / ΔΔG / kex: ecRBP.A188C, 54.6 °C; for kex: 1.00E−03 M IAM
T4 construct: made in house; host or cells: cell-free TnT, E. coli BL21 Star (DE3) extract
T4 sequence (P02925 other isoform, or with tags, fused parts or gaps T28W/A213C): as the sequence (P02925 other isoform, or with tags, fused parts or gaps T28W/L86C) above, with C62L, A189C counted along it
Experimental: as §1, §2, §3, §4

[6] = Quantitative cysteine reactivity (QCR): protein stability, temperature dependence of ΔGU; format: physicochemical; details: for ΔHm: Gibbs-Helmholtz fit, ΔCp assigned a priori; for ΔG°U at 25° C.: ecRBP mutants, Gibbs-Helmholtz extrapolation; for apparent Tm below wild-type: versus literature wild-type Tm
Experimental: as §1
Following staining with GelCode™ Blue Stain reagent (Thermo Scientific; 24592), gel images were digitized and band intensities quantified by densitometry (ImageJ; Rasband (1997-2009), U.S. National Institutes of Health, Bethesda, Md.) and fit to a single exponential to derive klabel. When designing QCR experiments, consideration was given to the degradation of the iodoacetyl moiety of IAM-biotin, which was dependent on time, exposure to light, and temperature. […] At higher temperatures the degradation of IAM-biotin is taken into account, primarily by limiting the labeling reaction to less than ˜90 min.
[formula] applies only if the labeling conditions were fully in the EX2 limit, when kclose>>kint. As labeling reagent concentration increases, kint increases concomitantly and eventually kint will become equal to or greater than kclose. Under these conditions, the observed labeling rate was determined solely by kopen and klabel and was no longer a measure of stability. The reagent concentration and environmental conditions (i.e. pH and temperature) at which EX2 conditions no longer apply varies according to the (un)folding kinetics of the protein. A simple test of reaction mechanism was to change reagent concentration and remeasure the kinetics: EX2 conditions were satisfied if the change in the observed labeling rate was proportional to the change in reagent concentration (see FIG. 9).
The QCR experiment was designed to determine the Gibbs free energy of global protein unfolding by measuring the reactivity of wild-type or mutant cysteines buried in a hydrophobic core. […] These mutant proteins were produced in 200 μL batches by cell-free coupled transcription and translation in E. coli extract. […] This approach uses approximately 0.5 picomoles (˜10 nanograms) of protein per time point and can use a variety of thiol-reactive reagents that alter electrophoretic mobility or were highly fluorescent.
The QCR method exploits the conformational fluctuations of a protein to measure conformational free energy. Cysteines that were protected in the folded ensemble can be modified by thiol-reactive probe only by complete exposure to bulk solvent by transient unfolding reactions, as described by a two-step reaction scheme:
Unfolding free energies (ΔGU) can be determined under EX2 conditions (kclose>>kint) by measuring klabel, the rate constant for labeling a protected cysteine at a specified concentration of thiol probe [P]

[7] = second-order rate constants 25-55 °C

Molecule: [Ca+2] [Ca^2+]
- Kd [1]: 600 ± 200 µM
- increase in stability (ΔΔGU) of SN/L36C [2]: 0.6 ± 0.2 kcal/mol
- Kd (SN; Ca2+ and pdTp synergistic, read-out: affinity for SN in the presence of the other ligand): ~2 µM
- Kd (SN; Serpersu et al. 1986, read-out: affinity for SN, ligand by itself): ~500 µM

Molecule: O=C(CI)NCCOCCOCCNC(=O)CCCC[C@@H]1SC[C@@H]2NC(=O)N[C@@H]21 [IAM-biotin, EZ-Link™ Iodoacetyl-PEG2-Biotin]
- pseudo-first order rate constant (kint) ([3]; 25 °C, 25 mM MOPS, 100 mM KCl): 0.00062 s⁻¹
- second order rate constant (k=kint/[GSH]) ([3]; 25 °C): 0.78 M⁻¹ s⁻¹
- pseudo-first order rate constant (kint) ([3]; 35 °C): 0.00016 s⁻¹
- second order rate constant (k=kint/[GSH]) ([3]; 35 °C): 2.0 M⁻¹ s⁻¹
- pseudo-first order rate constant (kint) ([3]; 45 °C): 0.0035 s⁻¹
- second order rate constant (k=kint/[GSH]) ([3]; 45 °C): 4.4 M⁻¹ s⁻¹
- pseudo-first order rate constant (kint) ([3]; 55 °C): 0.0077 s⁻¹
- second order rate constant (k=kint/[GSH]) ([3]; 55 °C): 9.6 M⁻¹ s⁻¹
- Arrhenius pre-exponential factor (ln A), IAM-biotin + GSH [3, 7]: 27.1±0.5
- Arrhenius slope (−Ea/R), IAM-biotin + GSH [3, 7]: −8.2×10^3±0.1×10^3

Molecule: O=C[C@H](O)[C@H](O)[C@H](O)CO [ribose, reference compound]
- Kd [4]: 2.8 ± 0.2 µM
- Kd [5]: 1.8 ± 0.1 µM

B1: ecRBP.L62C: E. coli ribose-binding protein variant L62C (SEQ ID NO:12) (protein, listed as Escherichia coli)
chain: MKDTIALVVSTLNNPFFVSLKDGAQKEADKLGYNLVVLDSQNNPAKELANVQDLTVRGTKICLINPTDSDAVGNAVKMANQANIPVITLDRQATKGEVVSHIASDNVLGGKIAGDYIAKKAGEGAKVIELQGIAGTSAARERGEGFQQAVAAHKFNVLASQPADFDRIKGLNVMQNLLTAHPDVQAVFAQNDEMALGALRALQTAGKSDVMVVGFDGTPDGEKAVNDGKLAATIAQLPDQIGAKGVETADKVLKGEKVQAKYPVDLKLVVKQNGGSHHHHHH
- ΔG ([4]; [Ligand] 0 μM): 1.0 kcal/mol
- ΔΔG ([4]; [Ligand] 0 μM): 0 kcal/mol
- kex ([4]; [Ligand] 0 μM): 0.0099 s⁻¹
- ΔG ([4]; [Ligand] 1.5 μM (ribose)): 1.5 kcal/mol
- ΔΔG ([4]; [Ligand] 1.5 μM (ribose)): 0.5 kcal/mol
- kex ([4]; [Ligand] 1.5 μM (ribose)): 0.0051 s⁻¹
- ΔG ([4]; [Ligand] 3 μM (ribose)): 1.8 kcal/mol
- ΔΔG ([4]; [Ligand] 3 μM (ribose)): 0.7 kcal/mol
- kex ([4]; [Ligand] 3 μM (ribose)): 0.0036 s⁻¹
- ΔG ([4]; [Ligand] 6 μM (ribose)): 2.2 kcal/mol
- ΔΔG ([4]; [Ligand] 6 μM (ribose)): 1.2 kcal/mol
- kex ([4]; [Ligand] 6 μM (ribose)): 0.00019 s⁻¹
- ΔG ([4]; [Ligand] 12 μM (ribose)): 2.6 kcal/mol
- ΔΔG ([4]; [Ligand] 12 μM (ribose)): 1.5 kcal/mol
- kex ([4]; [Ligand] 12 μM (ribose)): 0.00011 s⁻¹
- ΔG ([4]; [Ligand] 24 μM (ribose)): 2.7 kcal/mol
- ΔΔG ([4]; [Ligand] 24 μM (ribose)): 1.6 kcal/mol
- kex ([4]; [Ligand] 24 μM (ribose)): 0.00091 s⁻¹
- apparent Tm ([6]; Gibbs-Helmholtz fit of QCR ΔGU(T)): 54±1 °C
- ΔHm [6]: 81 ± 2 kcal/mol
- ΔG°U at 25° C. [6]: 3.2 ± 0.1 kcal/mol
- apparent Tm below wild-type [6]: ~8 °C

B2: ecRBP.A188C (protein, UniProt P02925 26-296, looked up, variant A188C)
Ribose import binding protein …: KDTIALVVSTLNNPFFVSLKDGAQKEADKLGYNLVVLDSQNNPAKELANVQDLTVRGTKILLINPTDSDAVGNAVKMANQANIPVITLDRQATKGEVVSHIASDNVLGGKIAGDYIAKKAGEGAKVIELQGIAGTSAARERGEGFQQAVAAHKFNVLASQPADFDRIKGLNVMQNLLTAHPDVQAVFCQNDEMALGALRALQTAGKSDVMVVGFDGTPDGEKAVNDGKLAATIAQLPDQIGAKGVETADKVLKGEKVQAKYPVDLKLVVKQ
- ΔG ([5]; [Ligand] 0 μM): 0.8 kcal/mol
- ΔΔG ([5]; [Ligand] 0 μM): 0 kcal/mol
- kex ([5]; [Ligand] 0 μM): 0.00217 s⁻¹
- ΔG ([5]; [Ligand] 1.5 μM (ribose)): 1.1 kcal/mol
- ΔΔG ([5]; [Ligand] 1.5 μM (ribose)): 0.3 kcal/mol
- kex ([5]; [Ligand] 1.5 μM (ribose)): 0.00141 s⁻¹
- ΔG ([5]; [Ligand] 3 μM (ribose)): 1.4 kcal/mol
- ΔΔG ([5]; [Ligand] 3 μM (ribose)): 0.6 kcal/mol
- kex ([5]; [Ligand] 3 μM (ribose)): 0.00097 s⁻¹
- ΔG ([5]; [Ligand] 6 μM (ribose)): 1.6 kcal/mol
- ΔΔG ([5]; [Ligand] 6 μM (ribose)): 0.8 kcal/mol
- kex ([5]; [Ligand] 6 μM (ribose)): 0.00073 s⁻¹
- ΔG ([5]; [Ligand] 12 μM (ribose)): 2.2 kcal/mol
- ΔΔG ([5]; [Ligand] 12 μM (ribose)): 1.4 kcal/mol
- kex ([5]; [Ligand] 12 μM (ribose)): 0.00032 s⁻¹
- ΔG ([5]; [Ligand] 24 μM (ribose)): 2.5 kcal/mol
- ΔΔG ([5]; [Ligand] 24 μM (ribose)): 1.7 kcal/mol
- kex ([5]; [Ligand] 24 μM (ribose)): 0.00019 s⁻¹
- ΔHm [6]: 91 ± 4 kcal/mol
- ΔG°U at 25° C. [6]: 4.1 ± 0.1 kcal/mol
- apparent Tm below wild-type [6]: ~8 °C
